Earlier results in patent US12077586B2, “Bispecific antibodies for use in the treatment of hematological malignancies” (LAVA THERAPEUTICS N.V., priority 2018, dated 2024).
Changes are numbered by the printed parent chain.

B1: 6E4: Vγ9Vδ2-TCR binding VHH, SEQ ID NO: 152 (protein)
VHH: EVQLVESGGGLVQAGGSLRLSCAASGFTFDDYCIAWFRQAPGKEREPVSCITTSDGSTYYADSVKGRFTISSDNAKNTVYLQMNRLKPEDTAVYYCAAYFGYGCYGGAQDYRAMDYWGKGTLVTVSS
modifications: antibody sequence
B2: 6A1: Vγ9Vδ2-TCR binding VHH, SEQ ID NO: 151 (protein)
VHH: EVQLVESGGGLVQAGGSLRLSCAASGRTFSNYAMGWFRQAPGKEREFVATISWSGGSTYYADSVKGRFTISRDNAKNTVYLQMNSLKPEDTAVYYCAAAFSGSDYANTKKEVEYDYWGQGTQVTVSS
modifications: antibody sequence
B3: 5F5: Vγ9Vδ2-TCR binding VHH, SEQ ID NO: 150 (protein)
VHH: EVQLVESGGGLVQAGGSLRLSCAASGRTFSNYAMGWFRQAPGKEREFVAAISWSGGSTYYADSVKGRFTISRDNAKNTVYLQMNSLKPEDTAVYYCAAMFSGSESQLVVVITNLYEYDYWGQGTQVTVSS
modifications: antibody sequence
B4: 5G3: Vγ9Vδ2-TCR binding VHH, SEQ ID NO: 141 (protein)
VHH: EVQLVESGGGLVQAGGSLRLSCAASGRTFSSYAMGWFRQAPGKEREFVAAVSWSGGSTYYADSVKGRFTISRDNARNTVYLQMNSLNPEDTAVYYCAASQDCSGPGCYTNEYDSWGQGTQVTVSS
modifications: antibody sequence
B5: 5C7: Vγ9Vδ2-TCR binding VHH, SEQ ID NO: 153 (protein)
VHH: EVQLVESGGGLVQAGDSLRLSCAASGRTFSRYTMGWFRQAPGKEREFVAAISWSGGRTNFAGSVKGRFTISRDNAKNTVYLQMNSLKPEDTAVYYCAADWLPVPGRESYDYWGQGTQVTVSS
modifications: antibody sequence
B6: 6H1: Vγ9Vδ2-TCR binding VHH, SEQ ID NO: 140 (protein)
VHH: EVQLVESGGGLVQAGGSLRLSCAATGRTFSEYAMGWFRQAPGKEREFAAAISWTGSKTYYADSVKGRFTISRDNAKNTVYLQMNSLKPEDTAVYYCAASSDCSGPGCHTEEYDYWGQGTQVTVSS
modifications: antibody sequence
B7: 6E3: Vγ9Vδ2-TCR binding VHH, SEQ ID NO: 144 (protein)
VHH: EVQLVESGGGLVQAGGSLRLSCAASGRPFSNYGMGWFRQAPGKKREFVAGISWSGGSTDYADSVKGRLTISRDNAKNTVYLQMNSLKPEDTAVYYCAAVFSGAETAYYPSDDYDYWGQGTQVTVSS
modifications: antibody sequence
B8: 6C1: Vγ9Vδ2-TCR binding VHH, SEQ ID NO: 146 (protein)
VHH: B7 VHH with F47S, L68F
modifications: antibody sequence
B9: 6G3: Vγ9Vδ2-TCR binding VHH, SEQ ID NO: 148 (protein)
VHH: B7 VHH with S30N, K44E, D59Y, L68F, Y107Q, D111Y
modifications: antibody sequence
B10: 6H3: Vγ9Vδ2-TCR binding VHH, SEQ ID NO: 147 (protein)
VHH: B7 VHH with A24V, K44E, S52T, D59H, S63L, L68F, Y80H, D111T, D112E
modifications: antibody sequence
B11: 5C1: Vγ9Vδ2-TCR binding VHH, SEQ ID NO: 142 (protein)
VHH: EVQLVESGGGLVQPGGSLRLSCAASGSIFSNYAMAWFRQAPEKERDFLAAVSWSGGRTYYADSVKGRFTISRDNAKNTVNLQMNSLKPEDTAVYYCAASLSCSGPGCSLEEYDYWGQGTQVTVSS
modifications: antibody sequence

Target: T1, Vδ2 chain (Homo sapiens, UniProt A0JD36)
T1 construct: host or cells: γδ T-cells expressing a Vδ2 chain paired with a non-Vγ9 chain
T1 sequence (A0JD36 with tags, fused parts or gaps): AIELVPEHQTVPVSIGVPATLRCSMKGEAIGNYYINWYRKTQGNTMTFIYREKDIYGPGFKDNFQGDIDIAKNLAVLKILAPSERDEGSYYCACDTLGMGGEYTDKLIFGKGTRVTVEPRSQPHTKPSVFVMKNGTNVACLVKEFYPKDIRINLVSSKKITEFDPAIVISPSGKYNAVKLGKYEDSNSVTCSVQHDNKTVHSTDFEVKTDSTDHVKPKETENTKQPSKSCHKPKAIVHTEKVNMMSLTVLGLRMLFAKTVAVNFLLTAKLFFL
T1 sequence (P07766 23-207 partner): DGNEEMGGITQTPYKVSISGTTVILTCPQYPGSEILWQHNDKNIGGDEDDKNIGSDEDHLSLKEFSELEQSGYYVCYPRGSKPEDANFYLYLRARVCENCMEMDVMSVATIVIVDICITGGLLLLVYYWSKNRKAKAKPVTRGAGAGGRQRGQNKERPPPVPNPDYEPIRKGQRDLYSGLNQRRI
T1 sequence (P09693 23-182 partner): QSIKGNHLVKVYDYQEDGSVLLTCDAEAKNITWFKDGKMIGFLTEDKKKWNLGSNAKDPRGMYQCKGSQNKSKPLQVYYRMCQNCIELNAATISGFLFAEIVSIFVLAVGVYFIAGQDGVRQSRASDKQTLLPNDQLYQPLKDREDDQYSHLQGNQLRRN
T1 sequence (P04234 22-171 partner): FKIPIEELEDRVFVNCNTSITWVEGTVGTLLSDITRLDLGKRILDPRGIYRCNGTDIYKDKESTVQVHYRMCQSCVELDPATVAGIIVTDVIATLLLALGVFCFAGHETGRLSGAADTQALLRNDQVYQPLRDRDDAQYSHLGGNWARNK
T1 sequence (P20963 22-164 partner): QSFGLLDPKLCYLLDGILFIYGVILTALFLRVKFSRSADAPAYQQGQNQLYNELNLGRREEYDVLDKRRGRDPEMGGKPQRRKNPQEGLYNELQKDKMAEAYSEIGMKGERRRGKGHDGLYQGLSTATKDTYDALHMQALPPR
Conditions: Mean Fluorescence Index class; γδ T-cells expressing Vδ2 chain paired with non Vγ9 chain; cited from earlier work

Molecule	Binding, Vδ2+
B1	++ (“++” indicates an MFI above 20)
B2	++ (“++” indicates an MFI above 20)
B3	++ (“++” indicates an MFI above 20)
B4	− (“−” indicates a Mean Fluorescence Index (MFI) below 1.5)
B5	+/− (“+/−” indicates an MFI of between 1.5 and 4.5)
B6	− (“−” indicates a Mean Fluorescence Index (MFI) below 1.5)
B7	++ (“++” indicates an MFI above 20)
B8	++ (“++” indicates an MFI above 20)
B9	++ (“++” indicates an MFI above 20)
B10	++ (“++” indicates an MFI above 20)
B11	+/− (“+/−” indicates an MFI of between 1.5 and 4.5)

Target: T2, Vγ9 chain (Homo sapiens, UniProt Q99603, T7A)
T2 construct: host or cells: γδ T-cells expressing a Vγ9 chain paired with a non-Vδ2 chain
T2 sequence (Q99603 with tags, fused parts or gaps T7A limits assumed): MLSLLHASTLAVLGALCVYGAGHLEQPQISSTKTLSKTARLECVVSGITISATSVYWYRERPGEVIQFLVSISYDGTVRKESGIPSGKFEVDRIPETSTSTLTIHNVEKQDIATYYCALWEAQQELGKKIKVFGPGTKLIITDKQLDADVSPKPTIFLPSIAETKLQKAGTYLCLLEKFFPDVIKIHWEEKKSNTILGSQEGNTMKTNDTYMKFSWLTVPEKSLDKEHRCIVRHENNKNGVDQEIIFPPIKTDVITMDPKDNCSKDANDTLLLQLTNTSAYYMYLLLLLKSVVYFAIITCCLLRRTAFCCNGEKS
T2 sequence (P07766 23-207 partner): as the sequence (P07766 23-207 partner) above
T2 sequence (P09693 23-182 partner): as the sequence (P09693 23-182 partner) above
T2 sequence (P04234 22-171 partner): as the sequence (P04234 22-171 partner) above
T2 sequence (P20963 22-164 partner): as the sequence (P20963 22-164 partner) above
Conditions: Mean Fluorescence Index class; γδ T-cells expressing Vγ9 chain paired with non Vδ2 chain; cited from earlier work

Molecule	Binding, Vγ9+
B1	− (“−” indicates a Mean Fluorescence Index (MFI) below 1.5)
B2	− (“−” indicates a Mean Fluorescence Index (MFI) below 1.5)
B3	− (“−” indicates a Mean Fluorescence Index (MFI) below 1.5)
B4	++ (“++” indicates an MFI above 20)
B5	− (“−” indicates a Mean Fluorescence Index (MFI) below 1.5)
B6	++ (“++” indicates an MFI above 20)
B7	− (“−” indicates a Mean Fluorescence Index (MFI) below 1.5)
B8	− (“−” indicates a Mean Fluorescence Index (MFI) below 1.5)
B9	− (“−” indicates a Mean Fluorescence Index (MFI) below 1.5)
B10	+/− (“+/−” indicates an MFI of between 1.5 and 4.5)
B11	++ (“++” indicates an MFI above 20)

Target: T3, complete Vγ9Vδ2 TCR (Homo sapiens, UniProt A0JD36+Q99603, T7A)
T3 construct: host or cells: γδ T-cells expressing the complete Vγ9Vδ2 TCR
T3 sequence (Q99603 with tags, fused parts or gaps T7A limits assumed): as the sequence (Q99603 with tags, fused parts or gaps T7A limits assumed) above
T3 sequence (A0JD36 with tags, fused parts or gaps, stated change not applied): as the sequence (A0JD36 with tags, fused parts or gaps) above
T3 sequence (P07766 23-207 partner): as the sequence (P07766 23-207 partner) above
T3 sequence (P09693 23-182 partner): as the sequence (P09693 23-182 partner) above
T3 sequence (P04234 22-171 partner): as the sequence (P04234 22-171 partner) above
T3 sequence (P20963 22-164 partner): as the sequence (P20963 22-164 partner) above
Conditions: Mean Fluorescence Index class; cited from earlier work

Molecule	Binding, Vγ9Vδ2+
B1	++ (“++” indicates an MFI above 20)
B2	++ (“++” indicates an MFI above 20)
B3	++ (“++” indicates an MFI above 20)
B4	++ (“++” indicates an MFI above 20)
B5	+/− (“+/−” indicates an MFI of between 1.5 and 4.5)
B6	++ (“++” indicates an MFI above 20)
B7	++ (“++” indicates an MFI above 20)
B8	++ (“++” indicates an MFI above 20)
B9	++ (“++” indicates an MFI above 20)
B10	++ (“++” indicates an MFI above 20)
B11	++ (“++” indicates an MFI above 20)

System: γδ T-cells not expressing any of the Vγ9Vδ2 TCR chains
Conditions: Mean Fluorescence Index class; cells not expressing any Vγ9Vδ2 TCR chain; cited from earlier work

Molecule	Binding, Vγ9Vδ2−
B1	− (“−” indicates a Mean Fluorescence Index (MFI) below 1.5)
B2	− (“−” indicates a Mean Fluorescence Index (MFI) below 1.5)
B3	− (“−” indicates a Mean Fluorescence Index (MFI) below 1.5)
B4	− (“−” indicates a Mean Fluorescence Index (MFI) below 1.5)
B5	− (“−” indicates a Mean Fluorescence Index (MFI) below 1.5)
B6	− (“−” indicates a Mean Fluorescence Index (MFI) below 1.5)
B7	− (“−” indicates a Mean Fluorescence Index (MFI) below 1.5)
B8	− (“−” indicates a Mean Fluorescence Index (MFI) below 1.5)
B9	− (“−” indicates a Mean Fluorescence Index (MFI) below 1.5)
B10	− (“−” indicates a Mean Fluorescence Index (MFI) below 1.5)
B11	− (“−” indicates a Mean Fluorescence Index (MFI) below 1.5)
